Data as given in paper PMC6338969, “Aptamer Conformation Switching-Induced Two-Stage Amplification for Fluorescent Detection of Proteins”.

B1: Control DNA aptamer (ssDNA)
DNA: TGCACCTCAGCATTTCCGTGGTAGGGCAGGTTGGGGTGATTTCTATTCAATCCGAGCAGGAACG
B2: PDGF-BB DNA aptamer (switch) (structured_DNA)
DNA: TGCACCTCAGCAGCAGGCTACGGCACGTAGAGCATCACCATGATCCTGCATCCGAGCAGGAACG

Experiments:
[1] = biological target: PDGF-BB (UniProt P01127 82-190); experiment: molecular beacon fluorescence with amplification; 1.0 ug/mL PDGF-BB; Aptamer + protein 15 min at 37 °C, then NEB buffer (pH 7.9) with Klenow exo- buffer, 37 °C, 2 h; 1 uM aptamer, 1 uM beacon, 2.5 uM primer, 2 mM dNTPs, Klenow exo- and Nt.BbvCI 1 U/uL each; salt not stated; settings: protein: commercial; chain copies: 2
Sequence of PDGF-BB (P01127 82-190): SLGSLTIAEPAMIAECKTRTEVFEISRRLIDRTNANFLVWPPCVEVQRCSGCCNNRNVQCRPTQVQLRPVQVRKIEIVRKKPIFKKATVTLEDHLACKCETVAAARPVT

[2] = biological target: prostate-specific antigen (PSA) (UniProt P07288 25-261); experiment: molecular beacon fluorescence with amplification; 0.1 mg/mL PSA; Aptamer + protein 15 min at 37 °C, then NEB buffer (pH 7.9) with Klenow exo- buffer, 37 °C, 2 h; 1 uM aptamer, 1 uM beacon, 2.5 uM primer, 2 mM dNTPs, Klenow exo- and Nt.BbvCI 1 U/uL each; salt not stated; settings: protein: commercial; Y-shaped complex with target
Sequence of prostate-specific antigen (PSA) (P07288 25-261): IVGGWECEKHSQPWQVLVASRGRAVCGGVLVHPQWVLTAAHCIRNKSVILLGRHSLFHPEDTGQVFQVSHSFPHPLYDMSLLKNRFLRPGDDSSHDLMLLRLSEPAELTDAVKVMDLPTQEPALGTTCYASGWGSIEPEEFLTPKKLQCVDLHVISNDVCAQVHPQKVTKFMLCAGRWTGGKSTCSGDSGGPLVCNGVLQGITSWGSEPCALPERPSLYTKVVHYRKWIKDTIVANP

[3] = biological target: carcino-embryonic antigen (CEA) (UniProt P06731 35-685); experiment: molecular beacon fluorescence with amplification; 0.1 mg/mL CEA; Aptamer + protein 15 min at 37 °C, then NEB buffer (pH 7.9) with Klenow exo- buffer, 37 °C, 2 h; 1 uM aptamer, 1 uM beacon, 2.5 uM primer, 2 mM dNTPs, Klenow exo- and Nt.BbvCI 1 U/uL each; salt not stated; settings: protein: commercial; Y-shaped complex with target
Sequence of carcino-embryonic antigen (CEA) (P06731 35-685): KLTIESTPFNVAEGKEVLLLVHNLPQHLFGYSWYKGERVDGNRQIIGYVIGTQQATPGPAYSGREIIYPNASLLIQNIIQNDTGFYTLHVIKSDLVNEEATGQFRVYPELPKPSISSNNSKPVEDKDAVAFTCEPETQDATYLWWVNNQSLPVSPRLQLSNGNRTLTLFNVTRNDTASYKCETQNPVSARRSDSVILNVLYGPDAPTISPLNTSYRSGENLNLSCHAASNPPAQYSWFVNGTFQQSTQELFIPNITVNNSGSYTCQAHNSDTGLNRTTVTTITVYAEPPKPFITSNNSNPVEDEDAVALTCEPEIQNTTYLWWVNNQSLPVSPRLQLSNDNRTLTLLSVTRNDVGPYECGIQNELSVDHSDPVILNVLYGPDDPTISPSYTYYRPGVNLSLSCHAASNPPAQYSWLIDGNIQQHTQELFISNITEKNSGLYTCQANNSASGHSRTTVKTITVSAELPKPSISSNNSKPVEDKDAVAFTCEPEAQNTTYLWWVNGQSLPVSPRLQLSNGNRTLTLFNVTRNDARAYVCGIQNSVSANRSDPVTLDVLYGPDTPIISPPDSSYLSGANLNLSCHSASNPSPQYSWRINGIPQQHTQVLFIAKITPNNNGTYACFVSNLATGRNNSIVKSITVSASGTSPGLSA

| Binder | binding result [1] | binding result [2] | binding result [3] |
| --- | --- | --- | --- |
| B1 | no binding |  |  |
| B2 |  | no binding | no binding |
